The values below come from patent publication US20230303666A1.

Test [1] addresses SARS-CoV-2 spike receptor binding domain with C-terminal 3xFlag tag (RBD-3xFlag) (SARS-CoV-2) (UniProt P0DTC2).
The target is the same in test [2]. The source holds these as a separate data set.

Substance VHH72 came in with an ELISA A450 in test [1] of 0.287 A450. For the same substance, the heated/non heated ratio of ELISA reading in test [2] was 0.33.
